# Reference: article PMC3257806 (Nature Cell Biology, 2011)
# T1: GST-SHARPIN (Homo sapiens, UniProt Q9H0F6)
# T1 sequence (Q9H0F6 1-387): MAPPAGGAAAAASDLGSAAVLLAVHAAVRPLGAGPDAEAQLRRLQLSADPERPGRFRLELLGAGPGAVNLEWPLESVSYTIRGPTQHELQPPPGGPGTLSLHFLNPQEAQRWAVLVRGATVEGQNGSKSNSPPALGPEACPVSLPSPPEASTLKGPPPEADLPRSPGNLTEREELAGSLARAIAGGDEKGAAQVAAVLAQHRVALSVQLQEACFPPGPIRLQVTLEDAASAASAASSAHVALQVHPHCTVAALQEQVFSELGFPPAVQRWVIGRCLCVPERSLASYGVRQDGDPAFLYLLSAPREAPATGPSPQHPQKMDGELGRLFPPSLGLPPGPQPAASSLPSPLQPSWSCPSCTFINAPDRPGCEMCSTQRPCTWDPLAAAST
# How the values were obtained:
# GST-SHARPIN = biological target: T1, GST-SHARPIN; type: binding; conditions: 2.5 μM biotinylated peptide on streptavidin-sepharose beads; Western blot
# [1] = biological target: EDANS-labelled wild-type α2-peptide (α2-wt); test: fluorescence polarisation
interaction of recombinant GST-SHARPIN with biotinylated peptide (pull-down) (GST-SHARPIN),Kd [1] [µM],Molecule
did not interact,–,"β1-tail: peptide of the cytoplasmic domain of β1-integrin, biotinylated or unlabelled"
–,26,recombinant GST-SHARPIN (natural protein) MAPPAGGAAAAASDLGSAAVLLAVHAAVRPLGAGPDAEAQLRRLQLSADPERPGRFRLELLGAGPGAVNLEWPLESVSYTIRGPTQHELQPPPGGPGTLSLHFLNPQEAQRWAVLVRGATVEGQNGSKSNSPPALGPEACPVSLPSPPEASTLKGPPPEADLPRSPGNLTEREELAGSLARAIAGGDEKGAAQVAAVLAQHRVALSVQLQEACFPPGPIRLQVTLEDAASAASAASSAHVALQVHPHCTVAALQEQVFSELGFPPAVQRWVIGRCLCVPERSLASYGVRQDGDPAFLYLLSAPREAPATGPSPQHPQKMDGELGRLFPPSLGLPPGPQPAASSLPSPLQPSWSCPSCTFINAPDRPGCEMCSTQRPCTWDPLAAAST
